Results as given in patent US20180023146A1 (CLEVELAND CLINIC FOUNDATION, published 2018).

Biological target: T1, 3βHSD1 (367N)-HA (human, UniProt P14060 2-373)
T1 construct: Expressed from pCMX-HSD3B1-HA in 293T cells and immunoprecipitated with anti-HA antibody; also called HSD3B1(N)-HA; not shown: HA tag fused to HSD3B1
T1 sequence (looked up): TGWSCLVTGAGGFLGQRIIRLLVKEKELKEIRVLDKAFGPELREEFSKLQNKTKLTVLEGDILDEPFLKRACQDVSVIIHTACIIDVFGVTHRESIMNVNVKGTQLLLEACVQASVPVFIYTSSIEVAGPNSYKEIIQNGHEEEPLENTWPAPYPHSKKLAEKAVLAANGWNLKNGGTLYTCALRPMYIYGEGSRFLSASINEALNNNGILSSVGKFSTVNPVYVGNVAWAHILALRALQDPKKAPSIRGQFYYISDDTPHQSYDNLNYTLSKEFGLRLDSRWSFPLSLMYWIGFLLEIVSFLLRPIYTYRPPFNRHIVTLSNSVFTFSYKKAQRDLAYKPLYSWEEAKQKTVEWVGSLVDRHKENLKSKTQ
Assay: SILAC with high-resolution mass spectrometry; 367N-HA (heavy) and 367T-HA (light) immunoprecipitations mixed 1:1

B1: AMFR (autocrine mobility factor receptor) (enzyme, UniProt Q9UKV5 1-643, looked up)
chain: MPLLFLERFPWPSLRTYTGLSGLALLGTIISAYRALSQPEAGPGEPDQLTASLQPEPPAPARPSAGGPRARDVAQYLLSDSLFVWVLVNTACCVLMLVAKLIQCIVFGPLRVSERQHLKDKFWNFIFYKFIFIFGVLNVQTVEEVVMWCLWFAGLVFLHLMVQLCKDRFEYLSFSPTTPMSSHGRVLSLLVAMLLSCCGLAAVCSITGYTHGMHTLAFMAAESLLVTVRTAHVILRYVIHLWDLNHEGTWEGKGTYVYYTDFVMELTLLSLDLMHHIHMLLFGNIWLSMASLVIFMQLRYLFHEVQRRIRRHKNYLRVVGNMEARFAVATPEELAVNNDDCAICWDSMQAARKLPCGHLFHNSCLRSWLEQDTSCPTCRMSLNIADNNRVREEHQGENLDENLVPVAAAEGRPRLNQHNHFFHFDGSRIASWLPSFSVEVMHTTNILGITQASNSQLNAMAHQIQEMFPQVPYHLVLQDLQLTRSVEITTDNILEGRIQVPFPTQRSDSIRPALNSPVERPSSDQEEGETSAQTERVPLDLSPRLEETLDFGEVEVEPSEVEDFEARGSRFSKSADERQRMLVQRKDELLQQARKRFLNKSSEDDAASESFLPSEGASSDPVTLRRRMLAAAAERRLQKQQTS
notes: It appears to be the protein of the human 293T cells, co-immunoprecipitated with HA-tagged 3βHSD1; also called gp78; ubiquitin E3-ligase AMFR
Q: B1 was tested. Which “normalized protein ratio (SILAC; 3βHSD1 (367N)-HA against 3βHSD1 (367T)-HA immunoprecipitates)” value did it give?
A: 1.67
